Measured values from patent publication US20240270828A1 (UAB RESEARCH FOUNDATION, published 2024).

Legend:
[1] = target: Spike of live SARS-CoV-2 WT virus (SARS-CoV-2, UniProt P0DTC2 14-1273); assay: cell-based or functional assay
[2] = target: Spike of live SARS-CoV-2 WT virus (SARS-CoV-2, UniProt P0DTC2 14-1273); assay: cell-based or functional assay; remark: listed apart in the source
[3] = target: Spike of SARS-CoV (Urbani) on infected Vero E6 cells and live virus (SARS-CoV, UniProt P59594 14-1255); assay: immunofluorescence on infected Vero E6 cells, 1 µg/ml
[4] = target: T1, Spike of MERS-CoV on infected Vero E6 cells and live virus (MERS-CoV, UniProt K9N5Q8 18-1353); assay: as above
T1 sequence: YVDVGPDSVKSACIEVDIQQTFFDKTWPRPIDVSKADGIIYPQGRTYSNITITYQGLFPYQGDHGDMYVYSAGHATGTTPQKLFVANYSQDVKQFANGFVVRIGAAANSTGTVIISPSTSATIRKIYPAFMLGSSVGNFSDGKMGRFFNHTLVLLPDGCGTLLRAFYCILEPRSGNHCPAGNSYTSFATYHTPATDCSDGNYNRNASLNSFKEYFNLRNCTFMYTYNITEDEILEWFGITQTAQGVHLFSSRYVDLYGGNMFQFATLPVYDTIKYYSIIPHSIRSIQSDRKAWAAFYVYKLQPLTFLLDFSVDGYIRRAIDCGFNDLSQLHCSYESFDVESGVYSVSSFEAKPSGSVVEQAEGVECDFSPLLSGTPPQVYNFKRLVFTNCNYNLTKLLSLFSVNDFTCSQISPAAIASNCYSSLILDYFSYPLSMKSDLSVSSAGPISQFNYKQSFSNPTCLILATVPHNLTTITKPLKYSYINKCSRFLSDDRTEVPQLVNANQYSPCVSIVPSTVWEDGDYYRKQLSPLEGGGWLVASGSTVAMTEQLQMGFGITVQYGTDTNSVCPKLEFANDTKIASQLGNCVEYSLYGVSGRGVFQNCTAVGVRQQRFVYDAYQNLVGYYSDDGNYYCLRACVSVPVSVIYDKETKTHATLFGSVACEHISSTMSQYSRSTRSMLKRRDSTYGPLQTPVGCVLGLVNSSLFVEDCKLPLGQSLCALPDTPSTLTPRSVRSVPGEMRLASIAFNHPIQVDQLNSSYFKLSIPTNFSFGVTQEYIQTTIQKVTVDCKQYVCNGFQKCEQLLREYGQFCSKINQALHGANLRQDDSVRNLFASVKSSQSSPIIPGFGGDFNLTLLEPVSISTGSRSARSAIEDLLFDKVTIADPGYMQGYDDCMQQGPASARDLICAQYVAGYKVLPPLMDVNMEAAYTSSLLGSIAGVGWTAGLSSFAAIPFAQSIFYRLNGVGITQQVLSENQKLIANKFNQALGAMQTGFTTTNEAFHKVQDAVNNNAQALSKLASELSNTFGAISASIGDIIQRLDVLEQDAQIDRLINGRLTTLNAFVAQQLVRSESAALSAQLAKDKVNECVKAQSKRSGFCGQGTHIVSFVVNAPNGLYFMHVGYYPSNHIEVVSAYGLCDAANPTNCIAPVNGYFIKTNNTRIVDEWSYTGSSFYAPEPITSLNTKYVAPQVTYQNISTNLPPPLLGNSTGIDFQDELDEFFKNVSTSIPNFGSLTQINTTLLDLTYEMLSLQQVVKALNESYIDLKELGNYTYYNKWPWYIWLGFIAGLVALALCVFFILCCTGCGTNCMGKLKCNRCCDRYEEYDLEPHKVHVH

[5] = target: T2, SARS-CoV-2 S1 (40591-V08H3, Sino Biological) (SARS-CoV-2, UniProt P0DTC2 16-685); assay: ELISA, hmAb at 10 and 1 ug/ml in duplicate; AUC
T2 construct: domain: S1

[6] = target: T3, SARS-CoV-2 S2 (40590-V08B, Sino Biological) (SARS-CoV-2, UniProt P0DTC2 686-1213); assay: ELISA, hmAb at 10 and 1 ug/ml in duplicate; AUC
T3 construct: domain: S2

[7] = target: T4, SARS-CoV-2 S1+S2 (40589-V08B1, Sino Biological) (SARS-CoV-2, UniProt P0DTC2 16-1213); assay: ELISA, hmAb at 10 and 1 ug/ml in duplicate; AUC
[8] = target: T2, SARS-CoV-2 S1 (40591-V08H3, Sino …); assay: ELISA on coated protein, anti-human IgG-HRP; AUC of the OD
[9] = target: T3, SARS-CoV-2 S2 (40590-V08B, Sino …); assay: as above
[10] = target: T4, SARS-CoV-2 S1+S2 (40589-V08B1, Sino …); assay: as above
[11] = target: SARS-CoV-2 Wuhan-Hu-1 Spike protein (NR-53524 BEI Resources) (SARS-CoV-2, UniProt P0DTC2 16-1213); assay: cell-based or functional assay
[12] = target: T5, MERS-CoV S2 (Sino Biological, 40070-V08) (MERS-CoV, UniProt K9N5Q8 726-1296); assay: ELISA, mAb at 5, 0.5 and 0.05 ug/ml, without and with 8M urea; AUC heat map
T5 sequence: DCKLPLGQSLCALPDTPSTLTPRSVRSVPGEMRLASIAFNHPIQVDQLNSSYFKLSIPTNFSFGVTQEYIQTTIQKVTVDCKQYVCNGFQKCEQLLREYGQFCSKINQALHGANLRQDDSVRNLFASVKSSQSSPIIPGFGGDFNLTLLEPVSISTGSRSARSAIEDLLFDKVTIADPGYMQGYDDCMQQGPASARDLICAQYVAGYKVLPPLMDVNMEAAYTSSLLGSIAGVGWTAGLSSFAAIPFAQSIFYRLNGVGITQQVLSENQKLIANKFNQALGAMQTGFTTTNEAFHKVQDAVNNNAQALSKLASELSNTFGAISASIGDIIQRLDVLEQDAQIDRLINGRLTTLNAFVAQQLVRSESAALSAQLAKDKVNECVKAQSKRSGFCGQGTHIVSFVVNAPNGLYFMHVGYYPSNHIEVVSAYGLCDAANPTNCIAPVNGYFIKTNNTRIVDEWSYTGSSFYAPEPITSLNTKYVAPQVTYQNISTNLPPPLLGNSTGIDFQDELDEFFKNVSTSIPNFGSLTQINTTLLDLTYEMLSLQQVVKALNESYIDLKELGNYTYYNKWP

[13] = target: T6, OC43 S2 (40607-V08B1, Sino Biological) (HCoV-OC43, UniProt P36334 759-1297); assay: as above
T6 construct: domain: S2
T6 sequence: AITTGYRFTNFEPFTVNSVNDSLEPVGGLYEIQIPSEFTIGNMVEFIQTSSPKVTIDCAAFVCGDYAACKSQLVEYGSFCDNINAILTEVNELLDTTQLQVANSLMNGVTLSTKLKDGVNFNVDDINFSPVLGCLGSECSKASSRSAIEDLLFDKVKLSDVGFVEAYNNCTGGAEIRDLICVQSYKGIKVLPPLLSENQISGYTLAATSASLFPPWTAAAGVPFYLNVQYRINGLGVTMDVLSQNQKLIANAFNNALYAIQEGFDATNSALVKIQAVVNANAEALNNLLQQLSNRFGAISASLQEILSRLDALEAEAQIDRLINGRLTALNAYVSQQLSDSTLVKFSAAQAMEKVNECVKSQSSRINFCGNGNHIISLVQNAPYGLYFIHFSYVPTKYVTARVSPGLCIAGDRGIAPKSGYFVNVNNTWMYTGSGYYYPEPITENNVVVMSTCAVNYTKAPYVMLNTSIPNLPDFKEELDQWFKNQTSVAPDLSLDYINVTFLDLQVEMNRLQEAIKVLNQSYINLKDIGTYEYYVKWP

[14] = target: T7, HKU1 S2 (40021-V08B, Sino Biological) (HCoV-HKU1, UniProt Q5MQD0 761-1300); assay: as above
T7 construct: domain: S2
T7 sequence: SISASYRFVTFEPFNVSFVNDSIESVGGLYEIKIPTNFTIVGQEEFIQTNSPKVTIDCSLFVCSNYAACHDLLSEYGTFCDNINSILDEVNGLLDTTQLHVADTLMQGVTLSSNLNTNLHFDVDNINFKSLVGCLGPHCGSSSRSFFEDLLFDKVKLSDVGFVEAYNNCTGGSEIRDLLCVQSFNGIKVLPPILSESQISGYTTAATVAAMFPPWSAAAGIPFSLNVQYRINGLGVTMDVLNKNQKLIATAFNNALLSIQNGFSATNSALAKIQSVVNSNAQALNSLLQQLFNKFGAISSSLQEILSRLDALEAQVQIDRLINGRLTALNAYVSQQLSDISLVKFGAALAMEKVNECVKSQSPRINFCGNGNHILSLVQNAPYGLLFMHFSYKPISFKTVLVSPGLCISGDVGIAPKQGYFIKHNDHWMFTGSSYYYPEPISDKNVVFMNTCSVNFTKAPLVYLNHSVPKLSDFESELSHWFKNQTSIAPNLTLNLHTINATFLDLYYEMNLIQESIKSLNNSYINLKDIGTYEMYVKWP

[15] = target: T5, MERS-CoV S2 (Sino Biological, 40070-V08); assay: SPR, as far as told; target printed as MERS-CoV SH

B1: CV3-25 (antibody, V domains shown)
VH: QVQLVESGAEVKKPGESLKISCKGSGYTFTRYWIGWVRQMPGKGLEWMGIIYPGDSDTRYSPSFQGHVTISADKSISTAYLQWNSLKASDTAMYYCARLPQYCSNGVCQRWFDPWGQGTLVTVSS
VL: EIVLTQSPSSVSASVGDRVTITCRASQGISSWLAWYQQKPGKAPKLLIYAASSLQSGVPSRFSGSGSGTDFTLTISSLQPEDFATYYCQQGNSFPYTFGQGTNLEIK
Neutralization IC50 (µg/ml), Live Virus WT [1]: 12.3 µg/mL

B2: 1242C6 (antibody, V domains shown)
VH: EVQLVQSGAEVKKPGASVKVSCKASGFTFSDYYMHWVRQAPRQGLEWMGLINPSGSGTAYAQNFQGRVTLTRDTSTSTLYMEMGSLTSDDTAVYYCARMDSSGSYDHWGQGTLVTVSS
VL: DIVMTQSPGTLSLSPGDRATLSCRASQTIRISYLAWYQQKPGQAPRLLVYGPSIRATGIPDRFSASGSGTDFTLTISRLEPEDFAVYYCQHYGSSPPRYTFGQGTKLEIK
notes: Recombinant human IgG1
Neutralization IC50 (µg/ml), Live Virus WT [2]: 5.68 µg/mL
binding result [3]: binds
binding result [4]: binds
Binding AUC [5]: 0.8
binding result [5]: no binding (tested: 10 ug/ml)
Binding AUC [6]: 26.7
Binding AUC [7]: 25.6
Binding AUC [8]: 0.8
Binding AUC [9]: 26.7
Binding AUC [10]: 25.6

B3: 1213H7 (antibody, V domains shown)
VH: QVQLQQSGPEVKKPGTSVKVSCRASGFTFSSSAMQWVRQARGQRLEWIGWIVVGSGNANYAQKFQERVTITRDLSTRTAYMELSSLRSEDTAVYYCAAPYCSGGTCLDGFDIWGQGTMVTVSS
VL: EIVLTQSPGTLSLSPGERATLSCRASQSVSRNYLGWYQQKPGQAPRLLIYGASSRATGIPDRFSGSGSGTDFTLTISRLEPEDFAVYYCQQYGSSPWTFGQGTKVEIK
ADCP activity, fold over isotype control [11]: ~8 fold
binding result [12]: no binding (tested: 5 ug/ml)
binding result [13]: no binding (tested: 5 ug/ml)
binding result [14]: no binding (tested: 5 ug/ml)

B4: S2P6 (antibody, V domains shown)
VH: EVQLVQSGAEVKKPGASVKVSCKASGYTFTSQYMHWVRQAPGQGLEWIGIINPSGVHTSYAQKFQGRVTLTRDTSTSTLYMELSSLRSEDTAVYYCARGSPKGAFDYWGQGTLVTVSS
VL: not shown
Kd [15]: 8.5 nM
